Positions of bridges follow the written chain, without caps; N, C: chain ends. No end group written: not given here.

B1: HW3 (peptide)
peptide: Ac-LEKEAEELVVEEDVLEEEIEQLEERNYALRKEIEDLQKQLEKL-NH2
notes: truncation NΔ17 CΔ3 of HW1; source: synthetic peptide (Fmoc SPPS, RP-HPLC purified)
B2: HW6 (peptide)
peptide: EDVLEEEIEQLEERNYALRKEIEDLQKQLEKLGAP-NH2
notes: truncation NΔ28 of HW1: the leucine zipper (LZ) only; also called LZ domain of HW1; source: synthetic peptide (Fmoc SPPS, RP-HPLC purified)
B3: HW9 (peptide)
peptide: Ac-EAEELVVEEDVLEEEIEQLEERNYALRKEIEDL-NH2
notes: truncation NΔ20 CΔ10 of HW1; source: synthetic peptide (Fmoc SPPS, RP-HPLC purified)
B4: HW27 (peptide)
peptide: Ac-EAEELVVEEDVLEEEIEQLEEKNKALKDEIEDLQKQY-NH2
modifications: lactam 24-28
SMILES: CC[C@H](C)[C@H](NC(=O)[C@H](CCC(=O)O)NC(=O)[C@@H]1CC(=O)NCCCC[C@H](NC(=O)[C@H](CC(N)=O)NC(=O)[C@H](CCCCN)NC(=O)[C@H](CCC(=O)O)NC(=O)[C@H](CCC(=O)O)NC(=O)[C@H](CC(C)C)NC(=O)[C@H](CCC(N)=O)NC(=O)[C@H](CCC(=O)O)NC(=O)[C@@H](NC(=O)[C@H](CCC(=O)O)NC(=O)[C@H](CCC(=O)O)NC(=O)[C@H](CCC(=O)O)NC(=O)[C@H](CC(C)C)NC(=O)[C@@H](NC(=O)[C@H](CC(=O)O)NC(=O)[C@H](CCC(=O)O)NC(=O)[C@H](CCC(=O)O)NC(=O)[C@@H](NC(=O)[C@@H](NC(=O)[C@H](CC(C)C)NC(=O)[C@H](CCC(=O)O)NC(=O)[C@H](CCC(=O)O)NC(=O)[C@H](C)NC(=O)[C@H](CCC(=O)O)NC(C)=O)C(C)C)C(C)C)C(C)C)[C@@H](C)CC)C(=O)N[C@@H](C)C(=O)N[C@@H](CC(C)C)C(=O)N[C@@H](CCCCN)C(=O)N1)C(=O)N[C@@H](CCC(=O)O)C(=O)N[C@@H](CC(=O)O)C(=O)N[C@@H](CC(C)C)C(=O)N[C@@H](CCC(N)=O)C(=O)N[C@@H](CCCCN)C(=O)N[C@@H](CCC(N)=O)C(=O)N[C@@H](Cc1ccc(O)cc1)C(N)=O
notes: cyclized form of the pair HW26/HW27; NΔ20 CΔ7; source: synthetic peptide (Fmoc SPPS, on-resin lactamization, RP-HPLC purified)

The target in the first data set is T1, cJun (60 amino acid construct encompassing the entire bZIP domain) (UniProt P05412 252-315). Put plainly: CD thermal denaturation; peptide (5 μM) with cJun (5 μM); ellipticity at 222 nm, 1°C to 90°C; 20 mM potassium phosphate, 150 mM potassium fluoride, 2 mM TCEP, pH 7.4; two-state fit gives the Tm of the peptide-cJun heterodimer; duplicate experiments. The following applies: both partners purified.
T1 sequence (P05412 252-315): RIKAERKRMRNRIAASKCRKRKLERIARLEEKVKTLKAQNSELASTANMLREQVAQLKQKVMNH
With B1, the “Tm of the peptide-cJun heterodimer” value worked out at 67.9 °C.
Still for that read-out and setting: the value for B2 was 55.1 °C; that for B3 was 44.8 °C.
Take B4: the “Tm of the peptide-cJun heterodimer” value worked out at 58.9 °C.

For the next data set, the target named is T1, cJun (60 amino acid construct …). Briefly: cell-based or functional assay.
Settings: not given
With B1, the “IC50 CD: peptide added to pre-incubated cJun (20 μM) and TRE DNA (5 μM); blocks cJun/TRE DNA binding” value came out at 33.7 µM.
The same measure, in the same setting: the result for B2 reads 130 µM.
Still for that read-out and setting: the result for B3 reads 1210 µM; that for B4, 94.1 µM.

(Values after PMC9582194, “The effect of helix-inducing constraints and downsizing upon a transcription block survival-derived functional cJun antagonist” (Cell Reports. Physical Science, 2022).)
